“And” between values parts separate entries of the source, which are not always exact repeats. Equal entries are not always repeated.
How the values were obtained:
[1] = target: T1, Strep tagged recombinant human PD-1 (human, UniProt Q15116 25-170, limits assumed); assay: SPR Biacore T200, strep-tagged PD-1 amine-coupled, single cycle kinetics
T1 construct: the whole entry is named; also called strep tagged human PD-1; not shown: Strep tag
Protocol: Single cycle kinetics assays were used to study the interaction between human PD-1 with Humabody® on a Biacore T200 instrument (GE Healthcare). Strep tagged recombinant human PD-1 was amine coupled to one flow cell of a CM-5 chip to create a low density surface (14 RU) using standard Biacore reagents. For the reference flow cell, a blank immobilisation was carried out. A five-point, three-fold dilution series of each Humabody® was made with a top concentration of 25 nM. The binding kinetics were followed by flowing the Humabody® over the chip surface in HBS EP+ buffer at a flow rate of 30 μl/min. The contact time for each of the association steps was 180 seconds and the dissociation step was 3300 seconds. The data was fitted to a 1:1 binding model after double reference subtraction using the Biacore T200 Evaluation software.

[2] = target: T2, recombinant human PD-1 Fc chimera (human, UniProt Q15116 25-167); assay: SPR Biacore T200, PD-1-huFc amine-coupled, single cycle kinetics
T2 construct: Bought protein; also called human PD-1-huFc; huPD-1-Fc; not shown: human Fc
Protocol: Binding kinetics of certain VH single domain antibodies binding to human PD-1-huFc were measured by surface plasmon resonance (SPR) technology using Biacore T200 instrument (GE Healthcare). Recombinant human PD-1-huFc was immobilized by standard amine coupling to CM5 sensorschip (GE Healthcare) using in range of 0.1-0.01 mg/ml solution of antigen in 10 mM sodium acetate at pH 5.5. For the reference flow cell, a blank immobilisation was carried out. Single cycle kinetics assays were used to study the interaction, a five point, three-fold dilution series of each Humabody® was made with a top concentration of 30 nM. The binding kinetics were followed by flowing the Humabody® over the chip surface in HBS EP+ buffer at a flow rate of 30 μl/min. The contact time for each of the association steps was 180 seconds and the dissociation step was varied between 1200-3600 seconds. The data was fitted to a 1:1 binding model after double reference subtraction using the Biacore T200 Evaluation software.

[3] = target: T3, human PD-1 expressed on cells (CHO human PD-1 cells) (human, UniProt Q15116 21-288); assay: cell-based or functional assay
[4] = target: T3, human PD-1 expressed on cells (CHO …); assay: FMAT epitope competition on CHO human PD-1 cells; competitor 1 nM 1.1-Strep
Protocol: For the epitope competition assay reagents were prepared in FMAT assay buffer. […] Plates were incubated for a minimum of 1.5 hours at room temperature then fluorescence measured in the FL2 (502 nm-537 nm) and FL5 (677-800 nm) channels on the Mirrorball plate reader (TTP) following excitation at 488 nm and 640 nm. Data was expressed as a % of the total binding control (i.e. % control) after subtraction of the background signal determined from the non-specific binding control wells.

T1 sequence (Q15116 25-170 limits assumed): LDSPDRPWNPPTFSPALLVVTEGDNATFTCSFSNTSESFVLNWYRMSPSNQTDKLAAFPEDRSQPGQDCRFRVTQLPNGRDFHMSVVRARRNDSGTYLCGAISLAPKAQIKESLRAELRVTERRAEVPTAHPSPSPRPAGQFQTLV
T3 sequence (Q15116 21-288): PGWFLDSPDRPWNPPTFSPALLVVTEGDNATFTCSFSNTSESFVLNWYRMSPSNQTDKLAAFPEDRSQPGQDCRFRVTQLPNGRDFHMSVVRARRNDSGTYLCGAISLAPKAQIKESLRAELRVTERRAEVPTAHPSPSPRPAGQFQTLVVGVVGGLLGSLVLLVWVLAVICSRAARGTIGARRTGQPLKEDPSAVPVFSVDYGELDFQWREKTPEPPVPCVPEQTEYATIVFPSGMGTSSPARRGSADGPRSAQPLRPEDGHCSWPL
T2 sequence (Q15116 25-167 limits assumed, change not shown): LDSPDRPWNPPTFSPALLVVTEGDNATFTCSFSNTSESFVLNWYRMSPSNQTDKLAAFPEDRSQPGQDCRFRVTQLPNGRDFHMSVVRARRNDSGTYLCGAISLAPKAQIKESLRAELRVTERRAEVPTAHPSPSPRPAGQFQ

Kd [2] | koff [2] | Reporter Assay EC50 [3] [nM] | kon [2] | further results | Binder
 |  |  |  | Kd [1]: 0.063 nM; koff [1]: 3.5e-05 s⁻¹; kon [1]: 550000 M⁻¹ s⁻¹ | 1.77-4GS-non-blocking VH (3) (bispecific antibody) EVQLVESGGGLVKPGGSLRLSCAASGFTFSDSSMTWMRQAPGKGLEWVSYISSGGGVKFYTDSVKGRFTISRDNAKNSLYLQMNSLRAEDTAVYYCAREAPLRLGESPHDAFDISGQGTMVTVSSGGGGSGGGGSGGGGSGGGGSEVQLVESGGGLVQPGRSLRLSCAASGFTFDDYAMHWVRQAPGKDLEWVSGISWNGGSMGYAASVKGRFTISRDNAKNSLYLQMNSLRAEDTALYYCVREKGPGLTGSTADYYGLDVWGQGTMVTVSS
0.0552 nM | 2.96e-05 s⁻¹ |  |  |  | Humabody® 1.41 (VHH, human VH single domain antibody) VHH: QVQLVESGGGLVKPGGSLRLSCAASGFTFSDNSMTWMRQAPGKGLEWVSYISSGGGVIFYADSVKGRFTISRDNAKNSLYLQMNSLRADDTAVYYCAREAPLRLGESPHDAFDIWGQGTMVTVSS
 |  |  |  | Kd [1]: 0.091 nM; koff [1]: 7.6e-05 s⁻¹; kon [1]: 830000 M⁻¹ s⁻¹ | Humabody® 1.84 (VHH, human VH single domain antibody) VHH: EVQLVESGGGLVKPGGSLRLSCAASGFTFSDESMTWMRQAPGKGLEWVSYISSGGGVKFYTDSVKGRFTISRDNAKNSLYLQMNSLRAEDTAVYYCAREAPLRLGESPHDAFDISGQGTMVTVSS
 |  | 29 |  |  | Humabody® 1.70 (VHH) VHH: QVQLVESGGGLVKPGGSLRLSCAASGFTFGDSSMTWMRQAPGKGLEWVSYISSGGAVKFYTDSVKGRFTISRDNAKNSLYLQMNSLRADDTAVYYCAREAPLRLGESPHDAFDISGQGTMVTVSS
 |  | 35 |  |  | Humabody® 1.69 (VHH) VHH: QVQLVESGGGLVKPGGSLRLSCAASGFTFSDNSMSWMRQAPGKGLEWVSYISSGGGVIFYADSVKGRFTISRDNAKNSLYLQMNSLRADDTAVYYCAREAPLRLGESPHDAFDISGQGTMVTVSS
 |  | 7.43 |  |  | Humabody® 1.71 (VHH) VHH: QVQLVESGGGLVKPGGSLRLSCAASGFTFGGSSMTWMRQAPGKGLEWVSYISSGGGVKFYTDSVKGRFTISRDNAKNSLYLQMNSLRADDTAVYYCAREAPLRLGESPHDAFDISGQGTMVTVSS
 |  | 26.1 |  |  | Humabody® 1.72 (VHH) VHH: QVQLVESGGGLVKPGGSLRLSCAASGFTFSDSSMSWMRQAPGKGLEWVSYISSGGGVIFYADSVKGRFTISRDNAKNSLYLQMNSLRADDTAVYYCAREAPLRLGESPHDAFDISGQGTMVTVSS
 |  | 12 |  |  | Humabody® 1.67 (VHH) VHH: QVQLVESGGGLVKPGGSLRLSCAASGFTFSGSSMTWMRQAPGKGLEWVSYISSGGGVIFYADSVKGRFTISRDNAKNSLYLQMNSLRADDTAVYYCAREAPLRLGESPHDAFDISGQGTMVTVSS
0.0856 nM | 4.53e-05 s⁻¹ |  | 530000 M⁻¹ s⁻¹ |  | Humabody® 1.54 (VHH, human VH single domain antibody) VHH: QVQLVESGGGLVKPGGSLRLSCAASGFTFSDDSMTWMRQAPGKGLEWVSYISSGGGVIFYADSVKGRFTISRDNAKNSLYLQMNSLRADDTAVYYCAREAPLRLGESPHDAFDIWGQGTMVTVSS
 |  | 74 |  | IC50 [4]: 2.5 nM | Humabody® 1.45 (VHH, human VH single domain antibody) VHH: QVQLVESGGGLVKPGGSLRLSCAASGFTFSDYSMSWMRQAPGKGLEWVSYISSGGGVIFYADSVKGRFTISRDNAKNSLYLQMNSLRADDTAVYYCAREAPLRLGESPHDAFDIWGQGTMVTVSS
 |  |  |  | Kd [1]: 0.091 nM; koff [1]: 8.7e-05 s⁻¹; kon [1]: 950000 M⁻¹ s⁻¹ | Humabody® 1.105 (VHH, human VH single domain antibody) VHH: EVQLVESGGGLVKPGGSLRLSCAASGFTFSDESLTWMRQAPGKGLEWVSYISSGGGVKFYTDSVKGRFTISRDNAKNSLYLQMNSLRAEDTAVYYCAREAPLRLGESPHDAFDISGQGTMVTVSS
 |  |  |  | IC50 [4]: 3 nM | Humabody® 1.101 (VHH, human VH single domain antibody) VHH: EVQLVESGGGLVKPGGSLRLSCAASGFTFSDFSMTWMRQAPGKGLEWVSYISSGGGVKFYADSVKGRFTISRDNAKNSLYLQMNSLRAEDTAVYYCAREAPLRLGESPHDAFDISGQGTMVTVSS
 |  |  |  | Kd [1]: 0.08 nM; koff [1]: 6.3e-05 s⁻¹; kon [1]: 780000 M⁻¹ s⁻¹ | Humabody® 1.104 (VHH, human VH single domain antibody) VHH: EVQLVESGGGLVKPGGSLRLSCAASGFTFSDESFTWMRQAPGKGLEWVSYISSGGGVKFYTDSVKGRFTISRDNAKNSLYLQMNSLRAEDTAVYYCAREAPLRLGESPHDAFDISGQGTMVTVSS
0.0355 nM | 1.53e-05 s⁻¹ |  | 432000 M⁻¹ s⁻¹ |  | Humabody® 1.56 (VHH, human VH single domain antibody) VHH: QVQLVESGGGLVKPGGSLRLSCAASGFTFSDNSMTWMRQAPGKGLEWVSYISSGGAVKFYADSVKGRFTISRDNAKNSLYLQMNSLRADDTAVYYCAREAPLRLGESPHDAFDILGQGTMVTVSS
 |  | 45 |  | IC50 [4]: 1.8 nM | Humabody® 1.46 (VHH, human VH single domain antibody) VHH: QVQLVESGGGLVKPGGSLRLSCAASGFTFSDSSMSWMRQAPGKGLEWVSYISSGGGVIFYADSVKGRFTISRDNAKNSLYLQMNSLRADDTAVYYCAREAPLRLGESPHDAFDIWGQGTMVTVSS
0.11 nM | 2.89e-05 s⁻¹ |  | 263000 M⁻¹ s⁻¹ |  | Humabody® 1.49 (VHH, human VH single domain antibody) VHH: QVQLVESGGGLVKPGGSLRLSCAASGFTFSDSSMSWMRQAPGKGLEWVSYISTGGGVKFYADSVKGRFTISRDNAKNSLYLQMNSLRADDTAVYYCAREAPLRLGESPHDAFDIWGQGTMVTVSS
 |  |  |  | IC50 [4]: 4.2 nM | Humabody® 1.94 (VHH, human VH single domain antibody) VHH: EVQLVESGGGLVKPGGSLRLSCAASGFTFSDWSMTWMRQAPGKGLEWVSYISSGGGVKFYADSVKGRFTISRDNAKNSLYLQMNSLRAEDTAVYYCAREAPLRLGESPHDAFDISGQGTMVTVSS
0.0364 nM | 1.95e-05 s⁻¹ |  | 535000 M⁻¹ s⁻¹ |  | Humabody® 1.55 (VHH, human VH single domain antibody) VHH: QVQLVESGGGLVKPGGSLRLSCAASGFTFSDNSMTWMRQAPGKGLEWVSYISSGGGVKFYADSVKGRFTISRDNAKNSLYLQMNSLRADDTAVYYCAREAPLRLGESPHDAFDISGQGTMVTVSS
0.106 nM | 5.24e-05 s⁻¹ | 18 | 496000 M⁻¹ s⁻¹ |  | Humabody® 1.48 (VHH, human VH single domain antibody) VHH: QVQLVESGGGLVKPGGSLRLSCAASGFTFSDSSMTWMRQAPGKGLEWVSYISSGGGVKFYADSVKGRFTISRDNAKNSLYLQMNSLRADDTAVYYCAREAPLRLGESPHDAFDIWGQGTMVTVSS
0.0581 nM | 2.34e-05 s⁻¹ |  | 402000 M⁻¹ s⁻¹ |  | Humabody® 1.50 (VHH, human VH single domain antibody) VHH: QVQLVESGGGLVKPGGSLRLSCAASGFTFSDNSMTWMRQAPGKGLEWVSYISSGGTIKFYADSVKGRFTISRDNAKNSLYLQMNSLRADDTAVYYCAREAPLRLGESPHDAFDIWGQGTMVTVSS
0.299 nM and 0.256 nM | 6.14e-05 s⁻¹ and 7.61e-05 s⁻¹ |  | 205000 M⁻¹ s⁻¹ and 297000 M⁻¹ s⁻¹ |  | Humabody® 1.52 (VHH, human VH single domain antibody) VHH: QVQLVESGGGLVKPGGSLRLSCAASGFTFSDNSMTWMRQAPGKGLEWVSYISSGGGVKYYADSVKGRFTISRDNAKNSLYLQMNSLRADDTAVYYCAREAPLRLGESPHDAFDIWGQGTMVTVSS
 |  | 27 |  | IC50 [4]: 4.4 nM | Humabody® 1.47 (VHH, human VH single domain antibody) VHH: QVQLVESGGGLVKPGGSLRLSCAASGFTFSDNSMSWMRQAPGKGLEWVSYISSGGGVIFYADSVKGRFTISRDNAKNSLYLQMNSLRADDTAVYYCAREAPLRLGESPHDAFDIWGQGTMVTVSS
 |  | 14 |  | IC50 [4]: 5.4 nM | Humabody® 1.53 (VHH, human VH single domain antibody) VHH: QVQLVESGGGLVKPGGSLRLSCAASGFTFSDNSMTWMRQAPGKGLEWVSYISSGGSVKFYADSVKGRFTISRDNAKNSLYLQMNSLRADDTAVYYCAREAPLRLGESPHDAFDIWGQGTMVTVSS

Source: patent US20200239573A1 (CRESCENDO BIOLOGICS, published 2020)
